Molecular target: recombinant β subunit of human MUC4 mucin (rMUC4β) (human)
Assay: native gel or EMSA; Blue Native PAGE of purified rMUC4β following thermal denaturation, non-reducing conditions; western blot with anti-His tag mAb

recombinant β subunit of human MUC4 mucin (rMUC4β) (domain or fragment)
stoichiometry N: 2
